Source: the supplement of paper PMC9112550, “Optimization of the antimicrobial peptide Bac7 by deep mutational scanning” (BMC Biology, 2022)

Each sequence was assayed on Escherichia coli TOP10 (assay: shrunken log2 fold change of peptide-encoding DNA abundance (4.5 h post-induction vs induction); higher = less antimicrobial activity (less host growth inhibition)). Conditions: time post-induction: 4.5 h; library: site-saturation at positions 5, 18, 19, 20.
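Also: peptides expressed intracellularly from a pBAD plasmid library in pooled LB shake-flask culture, induced with 0.3% L-arabinose, DNA abundance read by NGS, three biological replicates, DESeq2 with apeglm shrinkage.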

| Sequence | shrunken log2 fold change |
| --- | --- |
| RRIRTRPPRLPRPRPRPNQGPRP | -0.493 |
| RRIRGRPPRLPRPRPRPTHHPRP | 0.413 |
| RRIRYRPPRLPRPRPRPDQIPRP | 0.0304 |
| RRIRVRPPRLPRPRPRPCSPPRP | -0.137 |
| RRIRHRPPRLPRPRPRPNPSPRP | -0.0145 |
| RRIRTRPPRLPRPRPRPGYKPRP | -0.275 |
| RRIRRRPPRLPRPRPRPLDNPRP | -0.0599 |
| RRIRQRPPRLPRPRPRPHYSPRP | -0.0998 |
| RRIRIRPPRLPRPRPRPAKNPRP | 2.21 |
| RRIRGRPPRLPRPRPRPGMSPRP | 0.417 |
| RRIRERPPRLPRPRPRPDGAPRP | 0.129 |
| RRIRQRPPRLPRPRPRPHLWPRP | 0.0824 |
| RRIRFRPPRLPRPRPRPLCEPRP | -0.166 |
| RRIRERPPRLPRPRPRPTWRPRP | 0.268 |
| RRIRQRPPRLPRPRPRPNVEPRP | -0.0222 |
| RRIRIRPPRLPRPRPRPMFGPRP | -0.0865 |
| RRIRARPPRLPRPRPRPHCWPRP | 0.17 |
| RRIRCRPPRLPRPRPRPWALPRP | 0.0591 |
| RRIRNRPPRLPRPRPRPEPTPRP | 0.587 |
| RRIRGRPPRLPRPRPRPVINPRP | 0.199 |
| RRIRIRPPRLPRPRPRPVCFPRP | -0.256 |
| RRIRARPPRLPRPRPRPHVGPRP | 0.34 |
| RRIRNRPPRLPRPRPRPECTPRP | 0.00282 |
| RRIRKRPPRLPRPRPRPFKQPRP | 0.0339 |
| RRIRCRPPRLPRPRPRPFYHPRP | -0.668 |

| Sequence | shrunken log2 fold change |
| --- | --- |
| RRIRDRPPRLPRPRPRPQYSPRP | -0.028 |
| RRIRERPPRLPRPRPRPDILPRP | 0.0234 |
| RRIRYRPPRLPRPRPRPLPTPRP | -0.0873 |
| RRIRNRPPRLPRPRPRPYFWPRP | -0.0871 |
| RRIRCRPPRLPRPRPRPIRKPRP | -0.126 |
| RRIRNRPPRLPRPRPRPHHSPRP | 0.0657 |
| RRIRNRPPRLPRPRPRPLDYPRP | -0.309 |
| RRIRHRPPRLPRPRPRPETDPRP | -0.253 |
| RRIRCRPPRLPRPRPRPDMLPRP | -0.283 |
| RRIRFRPPRLPRPRPRPTLTPRP | 0.445 |
| RRIRHRPPRLPRPRPRPFFNPRP | -0.632 |
| RRIRARPPRLPRPRPRPFQTPRP | -0.0176 |
| RRIRQRPPRLPRPRPRPLWHPRP | -0.107 |
| RRIRNRPPRLPRPRPRPSHEPRP | 0.00187 |
| RRIRGRPPRLPRPRPRPFWKPRP | 0.0889 |
| RRIRYRPPRLPRPRPRPSHDPRP | -0.916 |
| RRIRSRPPRLPRPRPRPRVWPRP | 0.536 |
| RRIRRRPPRLPRPRPRPYCAPRP | -0.0524 |
| RRIRLRPPRLPRPRPRPSNKPRP | -0.646 |
| RRIRDRPPRLPRPRPRPTFHPRP | -0.148 |
| RRIRERPPRLPRPRPRPAMVPRP | 0.037 |
| RRIRVRPPRLPRPRPRPIHLPRP | -0.197 |
| RRIRGRPPRLPRPRPRPGTYPRP | -0.201 |
| RRIRERPPRLPRPRPRPTSLPRP | -0.647 |
| RRIRDRPPRLPRPRPRPMCDPRP | 0.0645 |

| Sequence | shrunken log2 fold change |
| --- | --- |
| RRIRRRPPRLPRPRPRPFDFPRP | -0.146 |
| RRIRQRPPRLPRPRPRPPGNPRP | 0.246 |
| RRIRSRPPRLPRPRPRPRFRPRP | 0.203 |
| RRIRYRPPRLPRPRPRPPWIPRP | -0.447 |
| RRIRIRPPRLPRPRPRPKCPPRP | -0.263 |
| RRIRIRPPRLPRPRPRPDMYPRP | -0.173 |
| RRIRYRPPRLPRPRPRPVTNPRP | -0.015 |
| RRIRHRPPRLPRPRPRPARHPRP | 0.293 |
| RRIRDRPPRLPRPRPRPSQCPRP | -0.034 |
| RRIRIRPPRLPRPRPRPLHAPRP | 0.00821 |
| RRIRCRPPRLPRPRPRPLNAPRP | -0.255 |
| RRIRKRPPRLPRPRPRPVSKPRP | 0.128 |
| RRIRDRPPRLPRPRPRPWIKPRP | 0.00902 |
| RRIRNRPPRLPRPRPRPPTHPRP | 0.0725 |
| RRIRFRPPRLPRPRPRPMSSPRP | -0.0482 |
| RRIRTRPPRLPRPRPRPHIIPRP | -0.0938 |
| RRIRLRPPRLPRPRPRPRHIPRP | 1.19 |
| RRIRARPPRLPRPRPRPVGSPRP | 0.383 |
| RRIRLRPPRLPRPRPRPCDGPRP | -0.181 |
| RRIRGRPPRLPRPRPRPYQFPRP | -0.297 |
| RRIRSRPPRLPRPRPRPDFPPRP | 0.0768 |
| RRIRNRPPRLPRPRPRPVGAPRP | 0.0749 |
| RRIRIRPPRLPRPRPRPIFKPRP | -0.226 |
| RRIRRRPPRLPRPRPRPMCPPRP | -0.119 |
| RRIRFRPPRLPRPRPRPTEFPRP | -0.217 |

| Sequence | shrunken log2 fold change |
| --- | --- |
| RRIRRRPPRLPRPRPRPNQGPRP | 0.134 |
| RRIRLRPPRLPRPRPRPHPHPRP | -0.0325 |
| RRIRLRPPRLPRPRPRPHPEPRP | 0.0233 |
| RRIRSRPPRLPRPRPRPRYRPRP | -0.276 |
| RRIRKRPPRLPRPRPRPLDHPRP | 0.118 |
| RRIRFRPPRLPRPRPRPVTPPRP | 0.241 |
| RRIRIRPPRLPRPRPRPFLKPRP | -0.341 |
| RRIRNRPPRLPRPRPRPLRYPRP | 0.0165 |
| RRIRNRPPRLPRPRPRPPDIPRP | -0.341 |
| RRIRCRPPRLPRPRPRPSGWPRP | 0.0712 |
| RRIRERPPRLPRPRPRPYLCPRP | -0.554 |
| RRIRRRPPRLPRPRPRPCQWPRP | 0.107 |
| RRIRMRPPRLPRPRPRPKYPPRP | -0.00805 |
| RRIRQRPPRLPRPRPRPMDWPRP | 0.0912 |
| RRIRWRPPRLPRPRPRPCKWPRP | -0.275 |
| RRIRCRPPRLPRPRPRPKSLPRP | -0.191 |
| RRIRLRPPRLPRPRPRPMFPPRP | -0.281 |
| RRIRMRPPRLPRPRPRPEYRPRP | -0.000921 |
| RRIRLRPPRLPRPRPRPNGEPRP | 0.00184 |
| RRIRPRPPRLPRPRPRPMWTPRP | 0.0739 |
| RRIRYRPPRLPRPRPRPPQAPRP | 0.114 |
| RRIRVRPPRLPRPRPRPFGVPRP | -0.179 |
| RRIRSRPPRLPRPRPRPHMAPRP | -0.361 |
| RRIRDRPPRLPRPRPRPCHVPRP | -0.0466 |
| RRIRMRPPRLPRPRPRPEWDPRP | 3.48 |

| Sequence | shrunken log2 fold change |
| --- | --- |
| RRIRCRPPRLPRPRPRPVLPPRP | 2 |
| RRIRYRPPRLPRPRPRPSYWPRP | -0.716 |
| RRIRWRPPRLPRPRPRPKQTPRP | 0.578 |
| RRIRTRPPRLPRPRPRPAFYPRP | 0.116 |
| RRIRIRPPRLPRPRPRPPCDPRP | -0.48 |
| RRIRGRPPRLPRPRPRPLAWPRP | 1.43 |
| RRIRLRPPRLPRPRPRPDSYPRP | 0.00388 |
| RRIRMRPPRLPRPRPRPSCCPRP | 0.291 |
| RRIRLRPPRLPRPRPRPKDIPRP | -0.23 |
| RRIRDRPPRLPRPRPRPVKQPRP | -0.0215 |
| RRIRVRPPRLPRPRPRPDNEPRP | -0.185 |
| RRIRWRPPRLPRPRPRPLIMPRP | -0.0185 |
| RRIRGRPPRLPRPRPRPPYFPRP | 0.0555 |
| RRIRLRPPRLPRPRPRPKNMPRP | -0.448 |
| RRIRDRPPRLPRPRPRPQYKPRP | -0.121 |
| RRIRRRPPRLPRPRPRPISHPRP | -0.215 |
| RRIRSRPPRLPRPRPRPCGIPRP | -0.0619 |
| RRIRVRPPRLPRPRPRPFDTPRP | -0.847 |
| RRIRTRPPRLPRPRPRPHWTPRP | -0.0902 |
| RRIRMRPPRLPRPRPRPWAEPRP | 0.628 |
| RRIRARPPRLPRPRPRPVPDPRP | 0.493 |
| RRIRYRPPRLPRPRPRPLKFPRP | -0.42 |
| RRIRDRPPRLPRPRPRPMMMPRP | -0.0648 |
| RRIRHRPPRLPRPRPRPVFLPRP | -0.582 |
| RRIRVRPPRLPRPRPRPGWEPRP | 0.123 |

| Sequence | shrunken log2 fold change |
| --- | --- |
| RRIRFRPPRLPRPRPRPQVPPRP | -0.144 |
| RRIRKRPPRLPRPRPRPCSCPRP | 0.018 |
| RRIRCRPPRLPRPRPRPKNSPRP | -0.159 |
| RRIRPRPPRLPRPRPRPSTLPRP | -0.139 |
| RRIRWRPPRLPRPRPRPIPMPRP | 0.112 |
| RRIRTRPPRLPRPRPRPIEAPRP | -0.199 |
| RRIRFRPPRLPRPRPRPEWDPRP | 0.168 |
| RRIRNRPPRLPRPRPRPEIFPRP | -0.0153 |
| RRIRARPPRLPRPRPRPYPSPRP | -0.0433 |
| RRIRMRPPRLPRPRPRPLAPPRP | 0.735 |
| RRIRNRPPRLPRPRPRPFFMPRP | 0.0606 |
| RRIRLRPPRLPRPRPRPSEAPRP | 0.12 |
| RRIRQRPPRLPRPRPRPVGKPRP | -0.14 |
| RRIRCRPPRLPRPRPRPDASPRP | 0.27 |
| RRIRWRPPRLPRPRPRPHCYPRP | -0.0542 |
| RRIRCRPPRLPRPRPRPEICPRP | 0.0631 |
| RRIRTRPPRLPRPRPRPECAPRP | 0.459 |
| RRIRERPPRLPRPRPRPFMWPRP | -0.262 |
| RRIRHRPPRLPRPRPRPYGPPRP | -0.311 |
| RRIRTRPPRLPRPRPRPRAAPRP | 0.385 |
| RRIRRRPPRLPRPRPRPKDEPRP | 0.189 |
| RRIRSRPPRLPRPRPRPEYDPRP | 0.0801 |
| RRIRCRPPRLPRPRPRPQCTPRP | -0.654 |
| RRIRHRPPRLPRPRPRPSKLPRP | -0.448 |
| RRIRIRPPRLPRPRPRPECYPRP | -0.146 |
